{
  "source": "patent US20260258115A1",
  "about": "(MAPP BIOPHARMACEUTICAL, published 2026)",
  "binders": {"B1": {"name": "ADI-41439 (antibody, V domains shown)", "VH": "QVQLVQSGTEVKNPGASVKVSCKASGYTFSNYGITWVRQAPGQGLEWMAWISAYNGNILYAQNVQGRVTMTTDTSTSTGYMELRSLRSDDTAVYYCARDAPAGTLTLLDYWGQGTLVTVSS", "VL": "DIVMTQTPLSLPVTLGQPASISCRPSQSLVYSDGNTYLNWFQQRPGQSPRRLIYKVSNRDSGVPDRFSGSGSGTDFTLRISRVEAEDVGVYYCMQGSHWPYAFGQGTKVEIK"}, "B2": {"name": "ADI-41437 (antibody, V domains shown)", "VH": "QVQLVQSGGEVKKPGASVKVSCKASGYTFTHYGISWARQAPGQGIEWMGWINVHNGNTEYAQRFQGRVTMTTDTSTNTAYMEMTSLTSDDTAVYYCARDKIVVVVVPNYHGMDVWGQGTLVTVSS", "VL": "not shown"}, "B3": {"name": "ADI-41438 (antibody, V domains shown)", "VH": "QVQLVQSGAEMRRPGSSVRLPCKASGYTFVSHTIVWVRQAPGQGLEWMGGIIPSLRTPNYAQNFQDRLTITADESARTAYMELSSLTSNDTAVYYCARETFQGGYYLDYWGQGTLVTVSS", "VL": "EIVMTQSPGTLSVSPGDTAALSCRASQSVGRNLAWYQQKPGQAPRLLIFGASTRAADIPGRFSGSGSGTEFTLTITSLQSEDFAVYYCQQYNKWPPYTFGQGTKVEIK"}, "B4": {"name": "ADI-41441 (antibody, V domains shown)", "VH": "EVQLVQSGPGLVKPSETLSLTCSVSGASISRYHYYWGWIRQSPGKGLEWIGTIYYSGTTYYNPSLESRVTISADTSKNQVSLKLTSVTAADTAVYYCARGSGDTALDFSFEYWGQGALVTVSS", "VL": "DIQLTQSPSFLSASVGDRITITCRASQGISNSLAWYQQKPGKAPKLLIYAASTLQFAVPSRFSGSGSGTEFTLTISSLQPEDFATYYCQQLDSYPLTFGGGTKLEIK"}, "B5": {"name": "ADI-41772 (antibody, V domains shown)", "VH": "EVQLLESGGGLVEPGTSLRLSCEASGFTFSDYYMSWIRQAPGKGPEWVADISSRGVVTYYADSVKGRFTISRDNAKNSLYLQLNSLGAEDTAVYYCARLREVTYIMPTIDYFDYWGQGTLVTVSS", "VL": "SYELTQPPSVSVSPGQTARITCSGDAFVKKYAYWYHQKSGQAPVVVIYEDTKRPSGIPERFSGSSSGTTATLTISGAQVEDEGDYYCYSRDFSGDHGVFGGGTKLTVL"}, "B6": {"name": "ADI-41783 (antibody, V domains shown)", "VH": "QVQLVQSGDEVKKPGASVKVSCKSSGYTFTHFGVSWVRQAPGQGLEWMGWISGYNGNTNYAQKLQGRVTMTTDTSTTTAYMELTSLRSDDTAVYYCARDSPAGTVTLDFWGQGTTVTVSS", "VL": "not shown"}, "B7": {"name": "ADI-41800 (antibody, V domains shown)", "VH": "QVQLVQSGAEVKKPGASVKVSCKASGYTFTDYYMHWVRQAPGQGLEWLAWINPYTGGTNYAQKFQGRVTLTRDTSVSTTYMEVTRLRSDDTAVYYCARGESFHHWGQGTLVTVSS", "VL": "QSALTQPASVSGSPGQSITISCTGTSSDIGGYDYVSWYQQHPGKVPKLMIYEVSTRPSGVSIRFSGSKSGNTASLTISGLQAEDEADYYCSSYTRSTITSVVFGGGTKLTVL"}, "B8": {"name": "ADI-41788 (antibody, V domains shown)", "VH": "QVQLVQSGAEVKKPGASVKVSCQASGYTLTTYDINWVRQAPGQGLEWMGWMNANSGNTGYAQKFQGRVTMTRNISISTAYMELSSLGPEDTAVYYCARGFYKWNDWSFDYWGQGTLVTVSS", "VL": "QSVLTQPPSVSVAPGQTARITCGGNNIGSKSVHWYQQKPGQAPVLVVYDDSDRPSGIPERFSGSNSGNTAPLTISRVEAGDEADYYCQVWDGDSAHHAVFGGGTQLTVL"}, "B9": {"name": "ADI-41792 (antibody, V domains shown)", "VH": "QVQLVQSGGGLVKHGGSLRLSCAASGFTFSSYSMNWVRQAPGKGLEWASSISSSSSYIYYADSVKGRFTISRDNAKNSLYLQMNSLRAEDTAVYYCARTEYSSSSPIFDYWGQGTLVTVSS", "VL": "QSVLTQPPSVSGAPGQRVTISCTGSSSNIGAGYDVHWYQQLPGTAPKLLTYGNSNRPSGVPDRFSGSKSGTSASLAITGLQAEDEADYYCQSYDSSLSGSVFGGGTKVTVL"}},
  "data": [
    {"molecular_target": "RSV fusion glycoprotein (RSV F) on RSV-A2 virus (respiratory syncytial virus, UniProt P03420 26-574)", "test": "cell-based or functional assay", "units": {"Neutralization IC50 (RSV subtype A)": "µg/mL"}, "values": [
      {"binder": "B1", "Neutralization IC50 (RSV subtype A)": 0.34},
      {"binder": "B2", "Neutralization IC50 (RSV subtype A)": "> 25"},
      {"binder": "B3", "Neutralization IC50 (RSV subtype A)": "> 25"},
      {"binder": "B4", "Neutralization IC50 (RSV subtype A)": "> 25"}
    ]},
    {"molecular_target": "RSV F on RSV-A2 virus (Respiratory syncytial virus, RSV-A2, UniProt P03420 26-574)", "test": "cell-based or functional assay", "units": {"Neutralization IC50 (RSV subtype A)": "µg/mL"}, "values": [
      {"binder": "B5", "Neutralization IC50 (RSV subtype A)": 0.04},
      {"binder": "B6", "Neutralization IC50 (RSV subtype A)": 0.25},
      {"binder": "B7", "Neutralization IC50 (RSV subtype A)": "> 25"},
      {"binder": "B8", "Neutralization IC50 (RSV subtype A)": 0.47},
      {"binder": "B9", "Neutralization IC50 (RSV subtype A)": "> 25"}
    ]}
  ]
}
